# Article PMC11950852, “Diversity Scale of Library Matters: Impact of mRNA Library Diversity Scales on the Discovery of Macrocyclic Peptides Targeting a Protein by the RaPID System” (ACS Central Science, 2025)
# Bridges are numbered along the chain shown (N, C = ends). Where no end group is shown, it is not given here. [ ]: non-standard residue; d: D form.
# B1: 14–4 (peptide)
# chain: {CH2CO}-YYSWTGRDFDAVKWNKCG-NH2
# modifications: thioether N-17
# SMILES: CC(C)[C@@H]1NC(=O)[C@H](C)NC(=O)[C@H](CC(=O)O)NC(=O)[C@H](Cc2ccccc2)NC(=O)[C@H](CC(=O)O)NC(=O)[C@H](CCCNC(=N)N)NC(=O)CNC(=O)[C@H]([C@@H](C)O)NC(=O)[C@H](Cc2c[nH]c3ccccc23)NC(=O)[C@H](CO)NC(=O)[C@H](Cc2ccc(O)cc2)NC(=O)[C@H](Cc2ccc(O)cc2)NC(=O)CSC[C@@H](C(=O)NCC(N)=O)NC(=O)[C@H](CCCCN)NC(=O)[C@H](CC(N)=O)NC(=O)[C@H](Cc2c[nH]c3ccccc23)NC(=O)[C@H](CCCCN)NC1=O
# B2: 12–5 (peptide)
# chain: {CH2CO}-YLVWHEYDSKKWYFSLCG-NH2
# modifications: thioether N-17
# SMILES: CC(C)C[C@@H]1NC(=O)[C@H](CO)NC(=O)[C@H](Cc2ccccc2)NC(=O)[C@H](Cc2ccc(O)cc2)NC(=O)[C@H](Cc2c[nH]c3ccccc23)NC(=O)[C@H](CCCCN)NC(=O)[C@H](CCCCN)NC(=O)[C@H](CO)NC(=O)[C@H](CC(=O)O)NC(=O)[C@H](Cc2ccc(O)cc2)NC(=O)[C@H](CCC(=O)O)NC(=O)[C@H](Cc2c[nH]cn2)NC(=O)[C@H](Cc2c[nH]c3ccccc23)NC(=O)[C@H](C(C)C)NC(=O)[C@H](CC(C)C)NC(=O)[C@H](Cc2ccc(O)cc2)NC(=O)CSC[C@@H](C(=O)NCC(N)=O)NC1=O
# B3: 14–2 (peptide)
# chain: {CH2CO}-YYSWSGKDVDSVIWNNCG-NH2
# modifications: thioether N-17
# SMILES: CC[C@H](C)[C@@H]1NC(=O)[C@H](C(C)C)NC(=O)[C@H](CO)NC(=O)[C@H](CC(=O)O)NC(=O)[C@H](C(C)C)NC(=O)[C@H](CC(=O)O)NC(=O)[C@H](CCCCN)NC(=O)CNC(=O)[C@H](CO)NC(=O)[C@H](Cc2c[nH]c3ccccc23)NC(=O)[C@H](CO)NC(=O)[C@H](Cc2ccc(O)cc2)NC(=O)[C@H](Cc2ccc(O)cc2)NC(=O)CSC[C@@H](C(=O)NCC(N)=O)NC(=O)[C@H](CC(N)=O)NC(=O)[C@H](CC(N)=O)NC(=O)[C@H](Cc2c[nH]c3ccccc23)NC1=O
# B4: 14–5 (peptide)
# chain: {CH2CO}-YLSWKYYDSSDWVILSCG-NH2
# modifications: thioether N-17
# SMILES: CC[C@H](C)[C@@H]1NC(=O)[C@H](C(C)C)NC(=O)[C@H](Cc2c[nH]c3ccccc23)NC(=O)[C@H](CC(=O)O)NC(=O)[C@H](CO)NC(=O)[C@H](CO)NC(=O)[C@H](CC(=O)O)NC(=O)[C@H](Cc2ccc(O)cc2)NC(=O)[C@H](Cc2ccc(O)cc2)NC(=O)[C@H](CCCCN)NC(=O)[C@H](Cc2c[nH]c3ccccc23)NC(=O)[C@H](CO)NC(=O)[C@H](CC(C)C)NC(=O)[C@H](Cc2ccc(O)cc2)NC(=O)CSC[C@@H](C(=O)NCC(N)=O)NC(=O)[C@H](CO)NC(=O)[C@H](CC(C)C)NC1=O
# B5: 14–6 (peptide)
# chain: {CH2CO}-YIEWYVYDSKSWVYVRCG-NH2
# modifications: thioether N-17
# SMILES: CC[C@H](C)[C@@H]1NC(=O)[C@H](Cc2ccc(O)cc2)NC(=O)CSC[C@@H](C(=O)NCC(N)=O)NC(=O)[C@H](CCCNC(=N)N)NC(=O)[C@H](C(C)C)NC(=O)[C@H](Cc2ccc(O)cc2)NC(=O)[C@H](C(C)C)NC(=O)[C@H](Cc2c[nH]c3ccccc23)NC(=O)[C@H](CO)NC(=O)[C@H](CCCCN)NC(=O)[C@H](CO)NC(=O)[C@H](CC(=O)O)NC(=O)[C@H](Cc2ccc(O)cc2)NC(=O)[C@H](C(C)C)NC(=O)[C@H](Cc2ccc(O)cc2)NC(=O)[C@H](Cc2c[nH]c3ccccc23)NC(=O)[C@H](CCC(=O)O)NC1=O
# B6: 10–1 (peptide)
# chain: {CH2CO}-YYSWSGSVSESVKWNSCG-NH2
# modifications: thioether N-17
# SMILES: CC(C)[C@@H]1NC(=O)[C@H](CO)NC(=O)CNC(=O)[C@H](CO)NC(=O)[C@H](Cc2c[nH]c3ccccc23)NC(=O)[C@H](CO)NC(=O)[C@H](Cc2ccc(O)cc2)NC(=O)[C@H](Cc2ccc(O)cc2)NC(=O)CSC[C@@H](C(=O)NCC(N)=O)NC(=O)[C@H](CO)NC(=O)[C@H](CC(N)=O)NC(=O)[C@H](Cc2c[nH]c3ccccc23)NC(=O)[C@H](CCCCN)NC(=O)[C@H](C(C)C)NC(=O)[C@H](CO)NC(=O)[C@H](CCC(=O)O)NC(=O)[C@H](CO)NC1=O
# B7: aML5 (peptide)
# peptide: {CH2CO}-YISWNEFNSPNWRFITCG-NH2
# modifications: thioether N-17
# SMILES: CC[C@H](C)[C@@H]1NC(=O)[C@H](Cc2ccc(O)cc2)NC(=O)CSC[C@@H](C(=O)NCC(N)=O)NC(=O)[C@H]([C@@H](C)O)NC(=O)[C@H]([C@@H](C)CC)NC(=O)[C@H](Cc2ccccc2)NC(=O)[C@H](CCCNC(=N)N)NC(=O)[C@H](Cc2c[nH]c3ccccc23)NC(=O)[C@H](CC(N)=O)NC(=O)[C@@H]2CCCN2C(=O)[C@H](CO)NC(=O)[C@H](CC(N)=O)NC(=O)[C@H](Cc2ccccc2)NC(=O)[C@H](CCC(=O)O)NC(=O)[C@H](CC(N)=O)NC(=O)[C@H](Cc2c[nH]c3ccccc23)NC(=O)[C@H](CO)NC1=O
# notes: Benchmark macrocycle from an earlier RaPID selection; measured again here; also called 17-mer aML5
# B8: 14–3 (peptide)
# chain: {CH2CO}-YLSWSEFDSKNWSLAYCG-NH2
# modifications: thioether N-17
# SMILES: CC(C)C[C@@H]1NC(=O)[C@H](CO)NC(=O)[C@H](Cc2c[nH]c3ccccc23)NC(=O)[C@H](CC(N)=O)NC(=O)[C@H](CCCCN)NC(=O)[C@H](CO)NC(=O)[C@H](CC(=O)O)NC(=O)[C@H](Cc2ccccc2)NC(=O)[C@H](CCC(=O)O)NC(=O)[C@H](CO)NC(=O)[C@H](Cc2c[nH]c3ccccc23)NC(=O)[C@H](CO)NC(=O)[C@H](CC(C)C)NC(=O)[C@H](Cc2ccc(O)cc2)NC(=O)CSC[C@@H](C(=O)NCC(N)=O)NC(=O)[C@H](Cc2ccc(O)cc2)NC(=O)[C@H](C)NC1=O
# B9: 8–2 (peptide)
# chain: {CH2CO}-YYHWNGRDGDKVEWVVCG-NH2
# modifications: thioether N-17
# SMILES: CC(C)[C@@H]1NC(=O)[C@H](CCCCN)NC(=O)[C@H](CC(=O)O)NC(=O)CNC(=O)[C@H](CC(=O)O)NC(=O)[C@H](CCCNC(=N)N)NC(=O)CNC(=O)[C@H](CC(N)=O)NC(=O)[C@H](Cc2c[nH]c3ccccc23)NC(=O)[C@H](Cc2c[nH]cn2)NC(=O)[C@H](Cc2ccc(O)cc2)NC(=O)[C@H](Cc2ccc(O)cc2)NC(=O)CSC[C@@H](C(=O)NCC(N)=O)NC(=O)[C@H](C(C)C)NC(=O)[C@H](C(C)C)NC(=O)[C@H](Cc2c[nH]c3ccccc23)NC(=O)[C@H](CCC(=O)O)NC1=O
# What was measured:
# [1] = target: T1, ectodomain of MET fused to Fc (UniProt P08581 25-932); test: SPR
# T1 chain: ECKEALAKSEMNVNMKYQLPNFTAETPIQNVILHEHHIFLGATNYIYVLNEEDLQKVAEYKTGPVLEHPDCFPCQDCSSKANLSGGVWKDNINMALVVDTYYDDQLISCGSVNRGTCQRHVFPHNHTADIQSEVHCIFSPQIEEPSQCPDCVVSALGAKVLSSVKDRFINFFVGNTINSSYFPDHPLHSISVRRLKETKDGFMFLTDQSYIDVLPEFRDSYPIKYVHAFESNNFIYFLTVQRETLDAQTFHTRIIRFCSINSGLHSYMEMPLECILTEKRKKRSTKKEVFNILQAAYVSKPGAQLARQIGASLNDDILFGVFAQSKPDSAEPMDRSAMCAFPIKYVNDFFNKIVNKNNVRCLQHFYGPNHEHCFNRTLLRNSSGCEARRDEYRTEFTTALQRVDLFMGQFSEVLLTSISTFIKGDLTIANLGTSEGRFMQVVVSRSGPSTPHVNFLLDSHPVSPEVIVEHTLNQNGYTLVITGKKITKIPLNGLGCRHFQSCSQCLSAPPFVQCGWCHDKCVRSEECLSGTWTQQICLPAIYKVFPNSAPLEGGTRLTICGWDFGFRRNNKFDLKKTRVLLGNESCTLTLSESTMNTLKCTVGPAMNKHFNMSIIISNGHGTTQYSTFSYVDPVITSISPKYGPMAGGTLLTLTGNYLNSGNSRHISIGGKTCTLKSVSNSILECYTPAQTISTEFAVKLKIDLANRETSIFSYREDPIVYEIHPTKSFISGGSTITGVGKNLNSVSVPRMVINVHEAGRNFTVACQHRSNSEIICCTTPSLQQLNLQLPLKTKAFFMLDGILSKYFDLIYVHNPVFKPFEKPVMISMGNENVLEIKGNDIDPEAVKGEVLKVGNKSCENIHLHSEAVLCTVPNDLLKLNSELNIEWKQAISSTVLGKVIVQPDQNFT
# [2] = target: T1, ectodomain of MET fused to Fc; test: SPR
# [3] = target: T2, ectodomain of MET fused to Fc (UniProt P08581 25-932); test: SPR; fitted by a 1:1 binding model; who was immobilised and the conditions are in the Supporting Information (not shown); details: both partners purified
# T2 construct: MET (hepatocyte growth factor receptor), a receptor tyrosine kinase; also called MET-Fc; Fc-tagged MET
binder,measurement,setting,value
B1,Kd,[1],2.49 nM
same,koff,[2],0.00198 s⁻¹
B2,Kd,[1],15.4 nM
same,koff,[2],0.002 s⁻¹
B3,Kd,[1],3.93 nM
same,koff,[2],0.00182 s⁻¹
B4,Kd,[1],64.7 nM
same,koff,[2],0.00836 s⁻¹
{CH2CO}-YFYYNWTNVAKWAKTLCG (thioether N-17 (inferred)) [6–2],koff,[3],0.0074 s⁻¹
same,Kd,[1],102 nM
B5,Kd,[1],31.5 nM
same,koff,[2],0.00564 s⁻¹
B6,koff,[3],~0.01 s⁻¹
same,koff,[2],0.00878 s⁻¹
{CH2CO}-YSWYLNWQAQWKKFEFCG (thioether N-17 (inferred)) [6–1],koff,[3],0.0518 s⁻¹
{CH2CO}-YWVYGFGKLNNDWRAFCG (thioether N-17 (inferred)) [14–1],Kd,[1],2.87 nM
same,koff,[2],0.000739 s⁻¹
B7,Kd,[3],11.2 nM
same,koff,[2],0.00606 s⁻¹
B8,Kd,[1],35 nM
same,koff,[2],0.00297 s⁻¹
{CH2CO}-[dY]RQFNRRTHEVWNLDCG (thioether N-16 (inferred)) [aMD4],Kd,[3],3.7 nM
same,koff,[2],0.00676 s⁻¹
{CH2CO}-YWYYTFDGRWEEYDAACG (thioether N-17 (inferred)) [8–3],Kd,[3],199 nM
same,koff,[3],0.0464 s⁻¹
{CH2CO}-YWYYTFDGRWKEYGAACG (thioether N-17 (inferred)) [8–1],koff,[3],0.0427 s⁻¹
B9,koff,[3],0.0103 s⁻¹
